How the values were obtained:
C1.844.hu31 = assay: FACS cell binding
C1.844.hu41 = assay: FACS cell binding

B1: C6.hC1 (other)
chain: MALRGFCSADGSDPLWDWNVTWNTSNPDFTKCFQNTVLVWVPCFYLWACFPFYFLYLSRHDRGYIQMTPLNKTKTALGFLLWIVCWADLFYSFWERSRGIFLAPVFLVSPTLLGITMLLATFLIQLERRKGVQSSGIMLTFWLVALVCALAILRSKIMTALKEDAQVDLFRDITFYVYFSLLLIQLVLSCFSDRSPLFSETIHDPNPCPESSASFLSRITFWWITGLIVRGYRQPLEGSDLWSLNKEDTSEQVVPVLVKNWKKECAKTRKQPVKVVYSSKDPAQPKESSKVDANEEVEALIVKSPQKEWNPSLFKVLYKTFGPYFLMSFFFKAIHDLMMFSGPQILKLLIKFVNDTKAPDWQGYFYTVLLFVTACLQTLVLHQYFHICFVSGMRIKTAVIGAVYRKALVITNSARKSSTVGEIVNLMSVDAQRFMDLATYINMIWSAPLQVILALYLLWLNLGPSVLAGVAVMVLMVPVNAVMAMKTKTYQVAHMKSKDNRIKLMNEILNGIKVLKLYAWELAFKDKVLAIRQEELKVLKKSAYLSAVGTFTWVCTPFLVALCTFAVYVTIDENNILDAQTAFVSLALFNILRFPLNILPMVISSIVQASVSLKRLRIFLSHEELEPDSIERRPVKDGGGTNSITVRNATFTWARSDPPTLNGITFSIPEGALVAVVGQVGCGKSSLLSALLAEMDKVEGHVAIKGSVAYVPQQAWIQNDSLRENILFGCQLEEPYYRSVIQACALLPDLEILPSGDRTEIGEKGVNLSGGQKQRVSLARAVYSNADIYLFDDPLSAVDAHVGKHIFENVIGPKGMLKNKTRILVTHSMSYLPQVDVIIVMSGGKISEMGSYQELLARDGAFAEFLRTYASTEQEQDAEENGVTGVSGPGKEAKQMENGMLVTDSAGKQLQRQLSSSSSYSGDISRHHNSTAELQKAEAKKEETWKLMEADKAQTGQVKLSVYWDYMKAIGLFISFLSIFLFMCNHVSALASNYWLSLWTDDPIVNGTQEHTKVRLSVYGALGISQGIAVFGYSMAVSIGGILASRCLHVDLLHSILRSPMSFFERTPSGNLVNRFSKELDTVDSMIPEVIKMFMGSLFNVIGACIVILLATPIAAIIIPPLGLIYFFVQRFYVASSRQLKRLESVSRSPVYSHFNETLLGVSVIRAFEEQERFIHQSDLKVDENQKAYYPSIVANRWLAVRLECVGNCIVLFAALFAVISRHSLSAGLVGLSVSYSLQVTTYLNWLVRMSSEMETNIVAVERLKEYSETEKEAPWQIQETAPPSSWPQVGRVEFRNYCLRYREDLDFVLRHINVTINGGEKVGIVGRTGAGKSSLTLGLFRINESAEGEIIIDGINIAKIGLHDLRFKITIIPQDPVLFSGSLRMNLDPFSQYSDEEVWTSLELAHLKDFVSALPDKLDHECAEGGENLSVGQRQLVCLARALLRKTKILVLDEATAAVDLETDDLIQSTIRTQFEDCTVLTIAHRLNTIMDYTRVIVLDKGEIQEYGAPSDLLQQRGLFYSMAKDAGLV
C1.844.hu31
  Kd: 518 nM
C1.844.hu41
  Kd: 94 nM
